What is called Kd is the free concentration of one partner at which half of the binding sites on the other are occupied at equilibrium, for simple one-to-one binding.

The target in series [1] is Sox2 full-length labelled in the C-IDR (UniProt P48431 1-317, M120C;S315C). The experiment in a line: smFRET (C-IDR expands, E 0.43 to 0.28); smFRET: 165 mM KCl or 200 mM salt (Supplementary Table 4), buffer details not in material; NMR: 20 mM NaH2PO4, 50 mM NaCl, 5 mM DTT, pH 5.5, 15 C. The settings on record: protein: recombinant; tags: His6-SUMO removed by ULP1; blunt.

For series [2], the target named is T1, Sox2 full-length, unlabelled (UniProt P48431 1-317). The experiment in a line: NMR (1H15N HSQC CSP); 30 uM Sox2, 1.1-fold DNA, 50 mM NaCl, pH 5.5, 15 C; smFRET: 165 mM KCl or 200 mM salt (Supplementary Table 4), buffer details not in material; NMR: 20 mM NaH2PO4, 50 mM NaCl, 5 mM DTT, pH 5.5, 15 C. The settings on record: protein: recombinant; tags: His6-SUMO removed by ULP1; blunt.

In series [3] the target is Sox2 DBD labelled at 37 and 120 (UniProt P48431 37-120, S37C;M120C). The experiment in a line: smFRET titration; 200 mM salt; labelled protein; smFRET: 165 mM KCl or 200 mM salt (Supplementary Table 4), buffer details not in material; NMR: 20 mM NaH2PO4, 50 mM NaCl, 5 mM DTT, pH 5.5, 15 C. As to conditions: protein: recombinant; tags: His6-SUMO removed by ULP1; blunt.
In series [4] the target is T2, Sox2 DBD, isolated, unlabelled (UniProt P48431 37-120). The experiment in a line: smFRET titration; 200 mM salt (table; text gives 165 mM KCl); smFRET: 165 mM KCl or 200 mM salt (Supplementary Table 4), buffer details not in material; NMR: 20 mM NaH2PO4, 50 mM NaCl, 5 mM DTT, pH 5.5, 15 C. As to conditions: protein: recombinant; tags: His6-SUMO removed by ULP1; label: Cy3B and CF660R, one on each 5' end; blunt.

The target in series [5] is T1, Sox2 full-length, unlabelled. Described as above. As to conditions: protein: recombinant; tags: His6-SUMO removed by ULP1; label: Cy3B and CF660R, one on each 5' end; blunt.
The target of series [6] is T2, Sox2 DBD, isolated, unlabelled. Description: smFRET titration; 200 mM salt; smFRET: 165 mM KCl or 200 mM salt (Supplementary Table 4), buffer details not in material; NMR: 20 mM NaH2PO4, 50 mM NaCl, 5 mM DTT, pH 5.5, 15 C. The settings on record: protein: recombinant; tags: His6-SUMO removed by ULP1; label: Cy3B and CF660R, one on each 5' end; blunt.
Series [7] concerns the target T1, Sox2 full-length, unlabelled. The description is as above. The settings on record: protein: recombinant; tags: His6-SUMO removed by ULP1; label: Cy3B and CF660R, one on each 5' end; blunt.

T1 sequence (P48431 whole entry): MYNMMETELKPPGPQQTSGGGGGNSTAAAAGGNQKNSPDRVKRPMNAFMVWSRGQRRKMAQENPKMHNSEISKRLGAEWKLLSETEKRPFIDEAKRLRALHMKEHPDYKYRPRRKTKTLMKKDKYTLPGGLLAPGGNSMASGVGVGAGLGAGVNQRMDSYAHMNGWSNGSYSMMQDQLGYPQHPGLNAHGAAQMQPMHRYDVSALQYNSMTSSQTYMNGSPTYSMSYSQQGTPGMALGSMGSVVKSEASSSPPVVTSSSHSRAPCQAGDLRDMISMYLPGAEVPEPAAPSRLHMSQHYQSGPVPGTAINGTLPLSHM
T2 sequence (P48431 37-120): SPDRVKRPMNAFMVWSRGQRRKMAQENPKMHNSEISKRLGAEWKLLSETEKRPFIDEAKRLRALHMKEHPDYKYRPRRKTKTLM
Chain of Sox2 DBD labelled at 37 and 120 (P48431 37-120 S37C/M120C): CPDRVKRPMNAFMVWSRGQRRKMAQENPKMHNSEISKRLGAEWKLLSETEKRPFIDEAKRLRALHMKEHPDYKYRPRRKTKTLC
Chain of Sox2 full-length labelled in the C-IDR (P48431 whole entry M120C/S315C): as the sequence (P48431 whole entry) above, with M120C, S315C counted along it

B1: 15 bp specific DNA, unlabelled (dsDNA)
DNA 1: ACTCTTTGTTTGGAT
DNA 2: ATCCAAACAAAGAGT
In the case of B1, the binding result in series [1] and in series [2] was “binds” throughout.

B2: 30 bp specific DNA (dsDNA)
DNA 1: ATCCCATTAGCATCCAAACAAAGAGTTTTC
DNA 2: GAAAACTCTTTGTTTGGATGCTAATGGGAT
Consider B2, for which the dissociation constant Kd in series [3] came to 0.3 ± 0.2 nM.

B3: 15 bp specific DNA, labelled (dsDNA)
DNA 1: ACTCTTTGTTTGGAT
DNA 2: ATCCAAACAAAGAGT
modifications: 5' C6-amino linker on both strands
Take B3: the Kd in series [4] is 0.3 ± 0.1 nM; in series [5], 0.4 ± 0.2 nM.

B4: 15 bp nonspecific DNA, labelled (dsDNA)
DNA 1: TCTATCTGTGTATGT
DNA 2: ACATACACAGATAGA
modifications: 5' C6-amino linker on both strands
On to B4, for which the values for the dissociation constant Kd in series [6] and in series [7] were 11 ± 4 nM and 6 ± 2 nM, respectively.

The values above are taken from article PMC10873366, “DNA binding redistributes activation domain ensemble and accessibility in pioneer factor Sox2”.
